From US20250161478A1, “LINKER PAYLOADS AND CONJUGATES THEREOF” (priority 2021, published 2025)

Target: TYRP1 antigen on human melanoma cells (IGR-1, SK-MEL-30, SK-MEL-28) (human) (UniProt P17643)
Experiment: cell-based or functional assay

## TAAuM (anti-mGP75-maleimidoacetyl-β-Ala-Val-Ser(Glc)-PAB-MMAU), DAR 10 (antibody)
  IC50, cell viability (PrestoBlue), IGR-1 cells: 1.3 nM
